The source of these data is paper PMC12041282.

The target in the assay is ectodomain of the SFTSV Gn glycoprotein (amino acids 20-453), Gn-his (SFTSV). Put plainly: SPR. Background: Surface plasmon resonance follows binding to a sensor surface in real time, without labels.

Broadly, the Kd is the free concentration of one partner at which half of the binding sites on the other are occupied at equilibrium, for simple one-to-one binding. Low readings indicate higher affinity, high ones lower affinity. Regarding “Recombinant human LRP1 CLII-Fc (Fc fusion)”, the dissociation constant Kd is 0.0168 µM. This lies in the double-digit nanomolar range.
